Results reported in patent US20200024357A1 (published 2020).

Molecular target: T1, human CD39 (vascular CD39, NTPDase1, ENTPD1) expressed at the cell surface (human, UniProt P49961 1-510)
T1 construct: also called huCD39; CHO-huCD39
T1 sequence: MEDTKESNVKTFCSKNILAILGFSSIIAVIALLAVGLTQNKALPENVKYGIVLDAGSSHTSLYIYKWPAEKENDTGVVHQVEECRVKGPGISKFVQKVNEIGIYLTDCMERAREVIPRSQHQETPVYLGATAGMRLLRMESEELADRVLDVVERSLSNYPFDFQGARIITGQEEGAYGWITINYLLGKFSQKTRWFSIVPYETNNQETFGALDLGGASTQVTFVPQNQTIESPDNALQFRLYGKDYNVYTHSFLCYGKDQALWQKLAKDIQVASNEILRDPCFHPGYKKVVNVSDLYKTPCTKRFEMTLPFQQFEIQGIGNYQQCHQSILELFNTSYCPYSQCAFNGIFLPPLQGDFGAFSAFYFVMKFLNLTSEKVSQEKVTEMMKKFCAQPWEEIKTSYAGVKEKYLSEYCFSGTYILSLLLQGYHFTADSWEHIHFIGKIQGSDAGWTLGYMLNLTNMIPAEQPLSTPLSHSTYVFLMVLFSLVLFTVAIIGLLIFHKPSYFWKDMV
Test: flow cytometry on CHO cells expressing human CD39
Procedure: Cells were incubated with various concentration of unlabeled anti-CD39 antibody from 30 μg/ml to 5×10-⁴ μg/ml, for 30 minutes at 4° C. After washes, cells were incubated with Goat anti-mouse H+L labeled secondary antibody for 30 min at 4° C.
Antibodies mAb1-21 were assessed for binding to CD39 by flow cytometry as described in Example 7, using CHO cells expressing human CD39 and CHO cells expressing cynomolgus (Macaca fascicularis) CD39.

binding result: binds
B1: mAb20 H4L1 (antibody, human IgG1, kappa, V domains shown)
VH: QVQLVQSGAEVKKPGASVKVSCKASGYTFTDYNMHWVRQAPGQRLEWIGYIVPLNGGSTFNQKFKGRATITVDTSARTAYMELSSLRSEDTAVYYCARGGTRFAYWGQGTLVTVSS
VL: DIVMTQSPDSLAVSLGERATINCRASESVDNFGVSFMYWFQQKPGQPPKLLIYGASNQGSGVPDRFSGSGSGTDFTLTISSLQAEDVAVYYCQQTKEVPYTFGGGTKVEIKR
notes: The full heavy chain carries L234A/L235E/G237A/A330S/P331S
